The supplement of paper PMC12042874
± gives the uncertainty stated by the source.

assay: amyloid nucleation score (Sup35N fusion, yeast selection) (log enrichment); library NNK2; higher = more nucleation; inactive = no reads after selection
Outline: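 The nucleation score is the DiMSum log enrichment of output over input reads, centred on the mode score of non-aggregating sequences. Only sequences with 100 or more input reads were scored, using Illumina sequencing of input and output plasmid inserts. Psi-negative yeast expressing Sup35N fused to peptides of 20 random codons were induced 24 hours with 100 μM copper sulfate and grown 7 days at 30°C on medium lacking adenine and uracil.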

Substance	amyloid nucleation score
MINLQYLVGNLAVGL	1.37 ± 0.14
NFAQWW	0.443 ± 0.8
FIIVK	-1.32 ± 0.41
AAVTFSISYFIKTLHLENSS	0.169 ± 0.28
FPWQSSDYFWNHARRS	-0.043 ± 0.6
LLHSSYIIK	0.115 ± 1
SMAFREILLLMGSMLSCIRS	-0.956 ± 1
TSISLLFWCVYSLASVGFSA	-0.586 ± 1.1
DRGYKSYGG	0.775 ± 0.74
SALCNDVVRPMMVFSENCAK	0.225 ± 0.31
VSTTLTCEMLSVAVLFT	0.886 ± 0.3
MVINSFPPGWVRGHMIKSTG	-0.39 ± 0.76
FSHFAPWLSSDLCMWSCYLG	5.269 ± 0.041
LNISFSDSLSRLVV	-0.935 ± 1.1
FIFLNNIHTYIYYVR	6.292 ± 0.034
PDRVLLYKLTVRRFTGCDWG	2.32 ± 0.17
NSAPRGQCRSVFGLMYSYSI	inactive
TGVIAYVRKVGDLSSCVYSC	3.6 ± 0.14
SVVGQKVGGR	0.487 ± 0.33
FKAVS	-0.291 ± 1.1
IDFRISLCVRFFGCFLLDYY	-0.618 ± 0.76
MTCSSHCGMCIPSIPQVFGA	1.02 ± 0.4
LRVQGGWL	1.49 ± 0.34
RWVSGQTYVVLSIVR	0.242 ± 0.28
RPKTEDCGLNLSTVLNQVGH	0.111 ± 0.19

Substance	amyloid nucleation score
FSGFVCWQADIFDDANIRLV	-0.707 ± 0.78
HIFHCLSMGILGCSMFLCLD	0.952 ± 0.24
DQCELVSGVWLSIRSADLPY	0.176 ± 0.35
LLIFGVVLRVMNVVDPIRDI	-1.13 ± 0.55
GTSWTVTID	0.537 ± 0.18
CLSDNC	-0.13 ± 0.74
AHHYSESRGFRCCLTSGYFC	0.818 ± 0.25
KLNCMRGLPGLCPRWFIIAC	0.089 ± 1.1
DFNIIECSPGRGVHHDDWEP	inactive
FWVLDSSADYRAS	5.62 ± 0.075
FMLRTAQSHISSTVTSVKQA	0.064 ± 0.4
MIVNYFWIRCAPLFWQAIPS	3.63 ± 0.15
SYYLALYLMEYFYLDDARLN	-1.2 ± 1
TRSHLFGYSVMGSSLIDSLY	-1.24 ± 0.79
YGPSCSICPVVVIPSF	inactive
ISFWSHSDTFVGNEGEHSVR	1.29 ± 0.42
STSVTMHSLSDF	-1.02 ± 0.78
LEVKEVSEFLRLTYMYL	-1.67 ± 0.62
RPNLLSDILPRGLMAKSMHF	0.107 ± 0.79
WYYFYLFDACLSVSCWAIWY	-0.283 ± 1
FKLGGSNVDDFFVFNWITVF	-0.596 ± 0.76
IYPSVRYPMYAITKRYSRVG	-0.769 ± 0.28
MIWNCTVFFLGDGAPLCGLC	8.5 ± 0.064
LNVDGAFGKTAWYFRFVIQV	-0.127 ± 1
SFTAHTSIHASNLYTDLLLC	3.41 ± 0.063

Substance	amyloid nucleation score
VSDACRLDYLLAHILELGSM	-1.08 ± 0.78
HFTYGSSFIL	3.53 ± 0.069
GFGCPA	-0.165 ± 1
CSYSFDLTANICPISLNVVC	5.001 ± 0.043
RGNHNHGLWNPKNSMVMWEG	0.062 ± 0.48
NGVKEYLGNTSWKCTNRA	-0.137 ± 0.5
FMSVFTSAFLISHIMLV	0.21 ± 1
WPNFV	-0.995 ± 0.76
FGSVSSWELPRP	0.197 ± 0.63
IANWSKYSASTCLVMTHAMA	-0.302 ± 0.28
YCIKLRRYQNDKFWFNYTQV	4.35 ± 0.086
VVRVFLKGSSCGSLEAFDYV	2.86 ± 0.19
HRMAPMGVISGNVLLPLSVW	inactive
ILFGFSLPGSCDNWDRDAKG	-1.15 ± 0.78
DFVRY	-0.484 ± 0.63
MVFRNNYSEVTTRLAGNGRR	-0.074 ± 1.1
SVLSLTKMFGFVADGSRIIK	-0.574 ± 0.5
FPQFNRIWSSNFFAHIEGLN	-1.85 ± 0.44
IARDYVQ	-0.918 ± 0.54
HIDNVGVLR	1.18 ± 0.28
VPSQASGTRACKHNWTVWLE	1.33 ± 0.25
FHGHQPYFWNVL	0.326 ± 0.54
LQSTILIYVVNFFTTGIMGK	1.75 ± 0.11
NCKMVMIGCDRNYL	-1.37 ± 1.1
IHLIREVAQRFTSCA	0.7 ± 0.28

Substance	amyloid nucleation score
KMQMLWTGVCRVLFVAPQPN	0.319 ± 0.36
TDVAY	0.258 ± 0.2
SSLNHNPGWTEIYELHLVGF	0.27 ± 0.8
IITLSYGGCSVGPCGQ	7.371 ± 0.057
KHMNAYCNVTYQIDFRCIIS	inactive
VVRAFTDKPRSVSDSLGVIN	1.16 ± 0.18
FIPYNSW	0.689 ± 0.16
HPYYDQ	0.538 ± 0.45
YGLAC	2.44 ± 0.072
HGYSNNTSWAYI	0.436 ± 0.65
QMMLLTV	-0.214 ± 1.1
DYSGYHFMEQVP	-0.363 ± 0.33
DHRLYQSFKALRVPSVVLRG	-0.766 ± 0.79
YSNSPCVIYNMKGRGSLLSH	-1.6 ± 0.64
LVTARQLARI	0.121 ± 0.24
QNNKILFWQ	0.039 ± 0.31
HCAEHQPASGVLVTGYWDLG	0.444 ± 0.54
STSRCMRLHWGTFNYCSNIF	0.721 ± 0.35
RVEEWASFTTVIIMRMLNPG	0.94 ± 0.6
ALSDCL	-0.427 ± 0.45
LCVYLYWF	-1.01 ± 0.39
DIIVVQCIVSVMCTMRASRS	5.897 ± 0.051
SGLLVSNKFWGICTNYFGQR	6.684 ± 0.045
GGGAAPNPTDYKSILLLC	0.17 ± 0.34
CQSLIFASTYHRNSSFGKNV	2.92 ± 0.16

Substance	amyloid nucleation score
ARSPCCLYQMHIYFAKAFAD	-0.599 ± 0.33
SFDWWASHRTIVY	-0.217 ± 0.42
FSMRSKQGRTFTRLQDGSGL	4 ± 0.046
DRFRDVIICFFKCTCNRITQ	4.949 ± 0.034
CGVPNYQLVVEWMMTNRVGN	-0.888 ± 0.78
QCMTKKLEISQY	-0.492 ± 1
LLYHVGSTMGKPIYN	-0.669 ± 1
TCVVMAKGKLVVPVQEYPCV	2.62 ± 0.11
HVEHGNCFQ	inactive
TDYGLVALSQWKRVCLIQSG	0.176 ± 0.22
NVLRRFNCWRYESGFSNFVN	-1.38 ± 0.36
VRLLSFEINSWWLCACCRSV	7 ± 0.076
CFDCNIRGSVWKVYISLIVG	inactive
AEVCEVRTFVPYSCLFYSST	5.22 ± 0.06
VRDFCRWASDVRCSNGWRVA	0.384 ± 0.65
LVAALRV	-0.452 ± 0.39
YGSSGK	-0.362 ± 0.38
ILSHTGRVYKLRLYVIQIVR	-0.434 ± 0.61
SACIILI	1.65 ± 0.15
FYKDKETCLECWMIYENCRK	-0.29 ± 0.32
DTKTIRFLYKRYRLSWQVSE	4.587 ± 0.04
FKRDLMLYFCCSWCRKVCVY	-0.432 ± 0.34
VLNISMLLWIYNTYGNDGKV	8.029 ± 0.08
PDYYYMTTLLYCRSSKSLKR	-1.46 ± 1.1
PVNPQEFLSALSSRYEVKSW	-0.095 ± 1.1

Substance	amyloid nucleation score
VGFISTMWHMYSELLGQINV	-0.499 ± 0.76
SHWLHGFSH	inactive
DYLCGNFKCYCVFTNDGNRF	2.42 ± 0.21
GGDLNHHFAWTTNKMHDERR	4.537 ± 0.038
HVVVDSSVVAGCFTVFCRGI	8.265 ± 0.046
NFMGIIVLNQ	3.19 ± 0.09
HFMFVSNRVGWVGLLQNYSR	6.657 ± 0.066
TFVLSNC	-0.356 ± 0.65
LTFGCG	-0.903 ± 0.36
RLNVKDYFCYIAQESKTTDR	4.76 ± 0.083
YYACNKAND	-0.607 ± 1
RADTRDSGVVEACKGWSHEE	0.451 ± 0.34
VQGPHSFNGVGCRPFSNERR	-0.202 ± 1.1
TSDPEFV	-0.627 ± 0.49
AVFNGFKNNSLV	-0.146 ± 1
STYPILR	2.02 ± 0.18
TVILV	inactive
CKSFNSFSETPKYAKVVPRA	0.633 ± 0.56
FVRSIDNSAYLLWVSLYPCM	-0.364 ± 0.79
VYYIYQLEWSDVFFSAYGVH	-0.072 ± 0.76
YESHLCVFTCWTFRFLNVMD	-1.01 ± 1.1
HFIGVD	-0.156 ± 0.28
NTRGWDAGS	1.08 ± 0.28
DAWSCRRLF	inactive
WSPIGSFRCCGWCSSHQVRI	0.179 ± 0.57

Substance	amyloid nucleation score
GHNATNVGHIMFFITTWCCY	8.955 ± 0.047
TLWYRLFLVSISVFPKFVTE	-0.451 ± 1.1
GLLVLLLETCWKLVSFDLRK	0.561 ± 0.39
SDISNQLMFFGRWAPRVLVD	-0.35 ± 1.1
CRSKASSSIRIPT	0.586 ± 0.81
EVRIDHGHVIA	0.293 ± 0.43
TLTSSCVNFINMLHEIFRYS	-0.623 ± 1
SRLGVFMYANVLWGKQSRND	6.267 ± 0.058
SHNFRISYKSCVLNSCMKRL	inactive
AYRSDCIRHGGPFAGYNICI	0.044 ± 1.1
KLMFRHV	5.01 ± 0.081
KELLMAIASWSRLSGDIAVD	-0.86 ± 0.78
HDGCGPCSHWTGSQFTFRSS	2.2 ± 0.11
VARHIHLTRSRNNFSSGRKA	0.958 ± 0.4
ALNDAGYT	-0.656 ± 0.27
IVRVIMYLCGNLLVNRWGNA	0.082 ± 1.1
HGDAKFGSVVGAFQDLYS	1.29 ± 0.39
ETLAVLRIPCSRLYDHIYNF	-0.791 ± 0.78
ICQWRSWLKSTVIFCTRYDF	3.37 ± 0.13
NFVYMFVKL	4.97 ± 0.062
SWNTVVFSGKDNSILGVLAQ	-0.176 ± 0.45
YDVSFTFLWW	0.242 ± 0.61
VVAVVPYFN	-0.202 ± 1.1
NIQDLARSLDRDWTYIGIES	3.65 ± 0.079
